The results in this text go back to PMC1783898.

For the assay, the target named is SARS-CoV main protease, full-length wild type (3CLpro) (SARS-CoV) (UniProt P0C6X7). Kind of assay: AUC.

As usually defined, the stoichiometry N is a count of units in the complex or per binding partner. “SARS-CoV main protease, full-length wild type (3CLpro) (from UniProt P0C6X7) (enzyme)”: the stoichiometry N came to 2.
